One molecule from patent US20180022779A1 (UNIVERSITY OF VIRGINIA PATENT FOUNDATION, published 2018) can be followed below.

The experiment concerns the target T1, mouse eNOS (endogenous, thoracodorsal arteries) (mouse, UniProt P70313 2-1202).
T1 sequence (looked up): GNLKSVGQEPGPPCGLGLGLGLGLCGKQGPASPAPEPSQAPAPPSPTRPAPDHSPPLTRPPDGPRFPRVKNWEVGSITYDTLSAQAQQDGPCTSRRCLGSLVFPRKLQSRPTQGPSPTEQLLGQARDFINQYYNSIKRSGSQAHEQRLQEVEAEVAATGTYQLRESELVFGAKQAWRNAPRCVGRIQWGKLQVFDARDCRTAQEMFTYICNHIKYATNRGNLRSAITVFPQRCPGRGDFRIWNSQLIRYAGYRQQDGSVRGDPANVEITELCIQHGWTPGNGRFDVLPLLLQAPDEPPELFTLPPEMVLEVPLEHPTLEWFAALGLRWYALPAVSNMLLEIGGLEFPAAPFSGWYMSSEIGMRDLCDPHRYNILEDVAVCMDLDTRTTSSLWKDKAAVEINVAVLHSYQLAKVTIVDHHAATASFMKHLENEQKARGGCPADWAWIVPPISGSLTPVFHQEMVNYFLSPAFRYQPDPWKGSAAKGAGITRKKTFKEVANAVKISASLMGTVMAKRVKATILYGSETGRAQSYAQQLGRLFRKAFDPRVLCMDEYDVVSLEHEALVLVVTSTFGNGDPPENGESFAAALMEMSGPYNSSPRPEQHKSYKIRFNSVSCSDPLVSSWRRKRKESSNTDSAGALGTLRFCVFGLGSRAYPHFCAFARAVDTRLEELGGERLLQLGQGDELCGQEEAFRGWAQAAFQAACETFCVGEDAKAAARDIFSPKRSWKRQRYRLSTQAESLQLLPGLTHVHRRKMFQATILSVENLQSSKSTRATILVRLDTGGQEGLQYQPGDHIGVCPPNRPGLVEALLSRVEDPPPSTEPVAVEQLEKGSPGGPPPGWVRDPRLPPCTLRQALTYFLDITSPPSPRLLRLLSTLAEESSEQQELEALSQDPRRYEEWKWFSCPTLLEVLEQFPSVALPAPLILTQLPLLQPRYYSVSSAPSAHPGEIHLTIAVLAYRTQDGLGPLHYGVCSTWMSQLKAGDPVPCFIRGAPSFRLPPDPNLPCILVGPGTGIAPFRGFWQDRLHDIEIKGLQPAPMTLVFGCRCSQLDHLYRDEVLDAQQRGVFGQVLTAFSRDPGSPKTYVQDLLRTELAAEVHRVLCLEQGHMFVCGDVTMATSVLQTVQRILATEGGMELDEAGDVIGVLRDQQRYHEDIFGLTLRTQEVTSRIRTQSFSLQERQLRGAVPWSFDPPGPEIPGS
Put plainly: cell-based or functional assay.

B1: Hb α X peptide (HIV-tat tag linked to LSFPTTKTYF) (peptide)
peptide: YGRKKRRQRRRLSFPTTKTYF
With B1, the “EC50 of phenylephrine ([PE] producing half of the maximum effect), thoracodorsal arteries treated with Hb α X” value was 6.8 µM.
